# Where “and” joins values, the source holds several entries; their conditions need not be identical. Identical values can stand only once.
# Columns and labels:
# [1] = molecular target: Naegleria fowleri cystatin (recombinant, without signal presequence) (Naegleria fowleri (strain HB-1)); experiment: SEC; analytical size-exclusion chromatography, Superdex 200 Increase 10/300 GL, 20 mM Tris-HCl, 150 mM NaCl, pH 7.5; mass from calibration with Gel Filtration Standard (Bio-Rad)
# [2] = molecular target: Recombinant human cathepsin K holoenzyme (human) (UniProt P43235)
# Sequence of Recombinant human cathepsin K holoenzyme (human) (P43235 16-329): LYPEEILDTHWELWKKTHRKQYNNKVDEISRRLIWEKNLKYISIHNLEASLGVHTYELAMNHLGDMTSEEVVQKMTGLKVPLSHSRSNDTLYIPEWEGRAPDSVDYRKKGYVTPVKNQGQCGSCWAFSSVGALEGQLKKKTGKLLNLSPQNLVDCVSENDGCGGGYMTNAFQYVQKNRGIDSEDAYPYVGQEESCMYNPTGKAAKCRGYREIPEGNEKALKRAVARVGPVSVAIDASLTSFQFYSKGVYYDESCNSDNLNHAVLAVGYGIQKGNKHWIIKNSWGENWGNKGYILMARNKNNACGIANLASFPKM
# [3] = molecular target: Cathepsin L holoenzyme from human liver (human)
# Sequence of Cathepsin L holoenzyme from human liver (human) (P07711 18-333): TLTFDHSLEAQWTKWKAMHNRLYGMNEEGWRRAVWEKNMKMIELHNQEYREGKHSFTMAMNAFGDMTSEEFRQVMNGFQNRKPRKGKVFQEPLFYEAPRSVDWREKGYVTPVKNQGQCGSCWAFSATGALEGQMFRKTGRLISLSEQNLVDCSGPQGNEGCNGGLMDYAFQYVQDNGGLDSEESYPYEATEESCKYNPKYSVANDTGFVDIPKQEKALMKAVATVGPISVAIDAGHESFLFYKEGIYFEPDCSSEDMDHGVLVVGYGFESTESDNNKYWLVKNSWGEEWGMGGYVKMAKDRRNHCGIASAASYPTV
substance,measurement,setting,value
"Naegleria fowleri cystatin (recombinant, without signal presequence) (natural protein)",stoichiometry N,[1],4 and 2
same,"IC50 of inhibition of peptidase activity (Z-Phe-Arg-AMC cleavage), 50 nM enzyme, 5 nM – 2 µM Nf cystatin, pH 5.5",[2],31 nM
same,"IC50 of inhibition of peptidase activity (Z-Phe-Arg-AMC cleavage), 50 nM enzyme, 5 nM – 2 µM Nf cystatin, pH 5.5",[3],517 nM

# — article PMC11964265
